Test results published in paper PMC11302929.
Where “and” joins values, the source holds several entries; their conditions need not be identical. Equal entries are not always repeated.

Tests used:
[1] = molecular target: recombinant soluble NDV HN ectodomain including the stalk domain, without oligomerization domain (HN-M) (Newcastle disease virus); test: SEC; Superdex 200 Increase 10/300 GL column, freshly purified NDV HN proteins
[2] = molecular target: recombinant soluble NDV HN ectodomain with tetrabrachion tetramerization domain (HN-TE) (not stated | Newcastle disease virus); test: as above

| Substance | stoichiometry N [1] | stoichiometry N [2] |
| --- | --- | --- |
| recombinant soluble NDV HN ectodomain including the stalk domain, without oligomerization domain (HN-M) (domain or fragment) | 2 and 4 | – |
| recombinant soluble NDV HN ectodomain with tetrabrachion tetramerization domain (HN-TE) | – | 4 |
